Patent publication US9416162B2, “Peptides having reduced toxicity that stimulate cholesterol efflux” (The Regents of the University of California, priority 2013, dated 2016)
Entries after “also recorded” stand apart in the source; their conditions may differ. Non-standard residues stand in square brackets, D forms with d. No end group written: not given here. Cit = NC(=O)NCCC[C@H](N)C(=O)O

Columns and labels:
Type in all cases: cell-based
[1] = target: T1, ABCA1 (Mus musculus, UniProt P41233); experiment: ABCA1-dependent [3H]cholesterol efflux from J774 macrophages with and without cAMP
T1 construct: treated (18 h) with a cAMP analog to induce ABCA1 protein expression; endogenous in cells; host or cells: J774 macrophages
T1 sequence (P41233 whole entry): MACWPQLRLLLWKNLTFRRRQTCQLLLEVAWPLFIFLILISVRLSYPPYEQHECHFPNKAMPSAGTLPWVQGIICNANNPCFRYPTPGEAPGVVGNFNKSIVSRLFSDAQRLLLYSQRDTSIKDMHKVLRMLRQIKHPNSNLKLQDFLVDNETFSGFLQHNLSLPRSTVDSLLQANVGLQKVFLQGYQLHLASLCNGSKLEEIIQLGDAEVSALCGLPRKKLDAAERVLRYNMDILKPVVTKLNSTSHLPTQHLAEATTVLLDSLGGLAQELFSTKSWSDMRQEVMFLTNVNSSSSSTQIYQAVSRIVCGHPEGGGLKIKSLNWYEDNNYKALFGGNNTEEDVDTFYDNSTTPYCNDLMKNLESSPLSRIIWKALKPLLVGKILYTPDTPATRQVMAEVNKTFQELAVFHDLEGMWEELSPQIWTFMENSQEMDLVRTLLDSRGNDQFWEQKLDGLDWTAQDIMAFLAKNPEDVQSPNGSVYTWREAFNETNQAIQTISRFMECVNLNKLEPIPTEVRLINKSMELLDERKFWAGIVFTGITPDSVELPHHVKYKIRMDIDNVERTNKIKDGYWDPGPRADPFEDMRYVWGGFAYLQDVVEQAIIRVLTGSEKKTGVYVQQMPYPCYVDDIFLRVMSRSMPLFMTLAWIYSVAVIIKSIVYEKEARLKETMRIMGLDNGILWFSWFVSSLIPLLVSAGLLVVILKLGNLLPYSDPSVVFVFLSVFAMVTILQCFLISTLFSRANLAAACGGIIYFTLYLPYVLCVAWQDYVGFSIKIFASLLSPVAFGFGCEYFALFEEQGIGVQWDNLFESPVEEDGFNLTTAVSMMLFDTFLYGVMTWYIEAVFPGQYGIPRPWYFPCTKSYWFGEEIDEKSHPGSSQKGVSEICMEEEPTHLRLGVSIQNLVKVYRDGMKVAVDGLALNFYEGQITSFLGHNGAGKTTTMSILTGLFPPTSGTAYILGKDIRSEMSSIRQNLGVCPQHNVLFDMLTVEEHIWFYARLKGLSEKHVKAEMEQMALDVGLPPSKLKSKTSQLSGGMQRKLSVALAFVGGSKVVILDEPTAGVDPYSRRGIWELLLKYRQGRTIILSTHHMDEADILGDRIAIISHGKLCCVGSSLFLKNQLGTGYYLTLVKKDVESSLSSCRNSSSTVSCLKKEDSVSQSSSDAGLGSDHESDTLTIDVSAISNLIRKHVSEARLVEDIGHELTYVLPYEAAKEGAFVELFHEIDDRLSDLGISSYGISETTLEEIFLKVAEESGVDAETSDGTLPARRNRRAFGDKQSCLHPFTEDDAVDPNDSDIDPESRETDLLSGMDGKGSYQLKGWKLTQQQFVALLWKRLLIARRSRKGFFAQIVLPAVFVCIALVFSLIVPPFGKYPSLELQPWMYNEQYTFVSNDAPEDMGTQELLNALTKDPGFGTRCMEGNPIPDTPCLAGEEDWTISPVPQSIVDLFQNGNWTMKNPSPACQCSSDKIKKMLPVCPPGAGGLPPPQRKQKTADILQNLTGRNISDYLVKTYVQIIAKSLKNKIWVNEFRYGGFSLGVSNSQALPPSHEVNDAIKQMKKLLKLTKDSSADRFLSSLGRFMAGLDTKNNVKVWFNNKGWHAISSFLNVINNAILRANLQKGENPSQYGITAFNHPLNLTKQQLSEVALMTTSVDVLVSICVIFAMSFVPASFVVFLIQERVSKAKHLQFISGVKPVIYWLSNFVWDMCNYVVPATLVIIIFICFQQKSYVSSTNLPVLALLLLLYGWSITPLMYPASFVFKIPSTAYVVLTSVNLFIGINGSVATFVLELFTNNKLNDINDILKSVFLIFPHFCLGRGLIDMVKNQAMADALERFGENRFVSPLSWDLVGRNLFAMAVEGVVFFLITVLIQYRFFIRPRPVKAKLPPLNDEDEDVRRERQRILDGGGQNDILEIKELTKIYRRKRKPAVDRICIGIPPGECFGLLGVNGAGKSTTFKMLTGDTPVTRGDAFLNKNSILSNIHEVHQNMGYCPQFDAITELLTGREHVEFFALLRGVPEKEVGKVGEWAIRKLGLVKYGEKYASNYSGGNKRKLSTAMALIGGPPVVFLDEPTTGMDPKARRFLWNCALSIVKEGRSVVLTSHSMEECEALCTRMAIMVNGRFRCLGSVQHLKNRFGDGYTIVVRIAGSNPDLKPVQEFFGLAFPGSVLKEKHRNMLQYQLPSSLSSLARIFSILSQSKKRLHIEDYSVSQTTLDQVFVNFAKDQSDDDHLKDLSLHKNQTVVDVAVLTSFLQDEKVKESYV
Source text: Suitable cholesterol efflux assays are described in, e.g., Bielicki, J. K and Oda, M. N., Biochemistry, 41:2089-2096 (2002); Jia et al., Biochem. Biophys. Res. Common., 297:206-213 (2002). In some embodiments, a polypeptide known to mediate cholesterol efflux (e.g., helix 9/10 of Apo A-I) is used to screen for additional mediators of cholesterol efflux in a cell based assay. For example, cell lines in which cholesterol efflux can be enhanced using a cAMP analog that up-regulates ABCA1 protein expression (e.g., J774 macrophages) can conveniently be used to assess the ability of a polypeptide of the present invention to mediate cholesterol efflux. The cells are incubated with labeled cholesterol (e.g., [^3H]cholesterol) under conditions appropriate for cholesterol uptake by the cells. Thus, cAMP or cAMP analogs (e.g., CPT-cAMP) are incubated with the cells for a suitable time before the initiation of cellular cholesterol efflux, i.e., prior to contacting the cells with a test polypeptide. Measurement of labeled cholesterol appearing in the medium is used to determine the cholesterol efflux mediating activity of the test polypeptide.
Aliphatic analogs of ATI-5261 lacking phenylalanine residues retained potent ABCA1 selective cholesterol efflux activity (FIG. 7). J774 macrophages were labeled (48 h) with [^3H]cholesterol and treated (18 h) with a cAMP analog to induce ABCA1 protein expression; cells incubated in the absence of cAMP (left bars) served as controls. […] Peptides were used at a concentration of 30 μg/ml, which was maximal for promoting cholesterol efflux activity. Panel B—Dependence of cholesterol efflux on the concentration of peptides. […] Results are expressed as the difference in cholesterol efflux (%/4 h) observed using cAMP treated vs. non-treated J774 cells. Values are means±SD, n=3.

[2] = target: T2, ABCG1 (Homo sapiens, UniProt P45844); experiment: ABCG1 mediated cholesterol efflux from BHK cells stably transfected with ABCG1; conditions: BHK cells ABCG1 vs. mock transfected, 50 μg peptide/ml serum-free medium
T2 construct: expressed in transfected cells; host or cells: BHK cells, stably transfected
Experimental: To further evaluate potential anti-atherogenic mechanisms of CS6253, BHK cells stably transfected with ABCG1 and mock-transfected control cells were labeled with [3H]cholesterol and used in efflux experiments. The citrulline form of LeuATI-5261 (CS6253) lipidated with POPC and ATI-5261 were used as cholesterol efflux acceptors at 50 μg peptide/ml serum-free medium. Panel A—Time-course for ABCG1 mediated cholesterol efflux from cells to lipid-free CS6253 peptide or CS6253:POPC complexes. […] Panel B—Comparison between CS6253 and ATI-5261 in mediating cellular cholesterol efflux via ABCG1. [3H]cholesterol labeled BHK cells (ABCG1 vs. mock transfected) were incubated with either lipid-free peptide or peptides formulated with POPC.

[3] = test system: human plasma; experiment: Cholesterol efflux activity of human plasma treated with lipid-free peptide (J774 cells); conditions: human plasma with 300 μg/ml peptide 5 minutes (4° C.), diluted to 1%, cAMP treated J774 cells, vs vehicle-treated plasma
Experimental: To test whether CS6253 exerts anti-atherogenic effects in a biological milieu, human plasma was exposed (5 min) to lipid-free peptide. Interactions of CS6253 with HDL and activity of plasma to stimulate cholesterol efflux was assessed, using J774 macrophages labeled with [^3H]cholesterol. Panel A—Cholesterol efflux activity of plasma treated with lipid-free peptides. Human plasma was incubated with 300 μg/ml peptides for 5 minutes (4° C.), diluted to 1% in serum-free RPMI-1640 culture medium and immediately added to [^3H]cholesterol-labeled J774 cells. […] Panel B—Induction of preβ HDL upon treatment of human plasma with CS6253. Plasma was exposed to a small amount of peptide relative to endogenous apoA-I (1:10 mole ratio, respectively) and formation of preβ HDL assessed by 2D non-denaturing gradient gel electrophoresis (NDGGE) and western blot analysis. […] This is consistent with no peptide being associated with the preβ HDL fraction, indicating the particles were authentic preβ particles composed on endogenous apoA-I.

[4] = target: T1, ABCA1; experiment: ABCA1-dependent [3H]cholesterol efflux from J774 macrophages with and without cAMP; design: ABCA1-dependent cholesterol efflux: dose or concentration left out as unconfirmed
[5] = target: T3, SR-B1 (Rattus norvegicus, UniProt P97943); experiment: SR-B1 mediated cholesterol efflux from Fu5AH cells; conditions: 50 μg peptide/ml serum-free medium
T3 construct: endogenous in cells; host or cells: Fu5AH cells
T3 sequence (P97943 1-509): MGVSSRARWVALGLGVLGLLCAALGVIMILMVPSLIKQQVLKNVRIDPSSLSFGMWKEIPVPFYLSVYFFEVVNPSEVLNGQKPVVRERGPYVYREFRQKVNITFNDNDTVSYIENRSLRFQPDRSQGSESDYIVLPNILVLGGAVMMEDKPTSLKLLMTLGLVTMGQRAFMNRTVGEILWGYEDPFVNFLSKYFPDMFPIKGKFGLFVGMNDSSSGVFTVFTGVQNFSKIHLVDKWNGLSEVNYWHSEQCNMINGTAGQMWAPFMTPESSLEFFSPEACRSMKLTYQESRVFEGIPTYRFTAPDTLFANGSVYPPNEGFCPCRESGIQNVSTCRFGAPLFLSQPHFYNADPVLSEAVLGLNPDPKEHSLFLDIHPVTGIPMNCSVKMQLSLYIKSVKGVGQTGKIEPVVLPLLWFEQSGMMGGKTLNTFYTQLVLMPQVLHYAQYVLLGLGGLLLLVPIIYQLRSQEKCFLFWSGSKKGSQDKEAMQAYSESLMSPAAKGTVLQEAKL
Experimental: To further evaluate potential anti-atherogenic mechanisms of CS6253, Fu5AH cells labeled with [3H]cholesterol were used in efflux experiments. The citrulline form of LeuATI-5261 (CS6253) lipidated with POPC was used as a cholesterol efflux acceptor at 50 μg peptide/ml serum-free medium. Panel A-Time-course for SR-B1 mediated cholesterol efflux from cells. […] Panel B—Comparison between CS6253 and ATI-5261 in mediating cellular cholesterol efflux via SRB1. [3H]cholesterol labeled Fu5AH cells were incubated with either lipid-free acceptors or acceptors formulated with POPC.

[6] = cAMP treated J774 cells, increasing concentration of peptides, 4 h

Substance	peptide concentration at saturation in cholesterol efflux [1, 6]	ABCG1 mediated cholesterol efflux [2]	capacity of peptide-treated plasma to stimulate cholesterol efflux via ABCA1 [3]	ABCA1-dependent cholesterol efflux activity ([4]; J774 macrophages with/without cAMP, peptide 10 μg/ml)	cholesterol efflux activity compared with parent ATI-5261 ([1]; J774 cells with and without cAMP)	Km (cholesterol efflux potency) on molar basis ([1]; cAMP treated J774, lipid-free peptide, 4 h, Michaelis Menten equation)	Km for cholesterol efflux [1, 6]	SR-B1 mediated cholesterol efflux [5]	ABCA1-dependent cholesterol efflux ([4]; J774 with/without cAMP, acceptors lipid-free, 4 h)
ATI-5261: HDL mimetic peptide, parent peptide; triglyceride elevating and muscle toxic peptide used as positive control (EVRSKLEEWFAAFREFAEEFLARLKS) [reference compound]	roughly 3 μg/ml	poorly active	greater capacity to stimulate cholesterol efflux	overall greater efflux response					
EVCitSKLEEWLAALCitELAEELLARLKS (SEQ ID NO:2) (EV[Cit]SKLEEWLAAL[Cit]ELAEELLARLKS) [CS6253, citrulline form of LeuATI-5261, R3,14→Citrulline, 26-mer]	3 µg/mL	relatively poor activity	greater capacity to stimulate cholesterol efflux		identical to that observed using the parent ATI-5261 peptide	near apolipoproteins molar potency	high potency; also recorded: low Km	relatively poor activity	stimulated ABCA1-dependent cholesterol efflux similar to native apolipoproteins
